Laboratory results from patent US20120219567A1 (Biogen, published 2012).
Changes are numbered by the printed parent chain.

B1: human NgR mutant 67, 68, 71 (mutated to alanine) (receptor)
chain: CPGACVCYNEPKVTTSCPQQGLQAVPVGIPAASQRIFLHGAAISAVPAASFRACRNLTILWLHSNVLARIDAAAFTGLALLEQLDLSDNAQLRSVDPATFHGLGRLHTLHLDRCGLQELGPGLFRGLAALQYLYLQDNALQALPDDTFRDLGNLTHLFLHGNRISSVPERAFRGLHSLDRLLLHQNRVAHVHPHAFRDLGRLMTLYLFANNLSALPTEALAPLRALQYLRLNDNPWVCDCRARPLWAWLQKFRGSSSEVPCSLPQRLAGRDLKRLAANDLQGCAVATGPYHPIWTGRATDEEPLGLPKCCQPDAADKASVLEPGRPASAGNALKGRVPPGDSPPGNGSGPRHINDSPFGTLPGSAEPPLTAVRPEGSEPPGFPTSGPRRRPGCSRKNRTRSHCRLGQAGSGGGGTGDSE
B2: human NgR mutant 67, 68, 71, 89, 90, 92 (mutated to alanine) (receptor)
chain: B1 chain with H63A, S64A, V66A
B3: human NgR mutant 133, 136 (mutated to alanine) (receptor)
chain: B1 chain with A41N, A42R, A45H, H107A, H110A
B4: human NgR mutant 87, 89, 133, 136 (mutated to alanine) (receptor)
chain: B1 chain with A41N, A42R, A45H, W61A, H63A, H107A, H110A
B5: human NgR mutant 82, 179 (mutated to alanine) (receptor)
chain: B1 chain with A41N, A42R, A45H, N56A, N153A
B6: AP-Nogo-66 (ligand, UniProt Q9NQC3 1055-1120, looked up)
chain: RIYKGVIQAIQKSDEGHPFRAYLESEVAISEELVQKYSNSALGHVNCTIKELRRLFLVDDLVDSLK
notes: domain: Nogo-66; also called AP-Ng-66; Nogo-66 ligand; not shown: alkaline phosphatase (AP) moiety

Molecular target: B6
Experiment: AP-ligand binding to transfected COS-7 cells
Protocol: (§1) In order to probe the NgR domains that interact with Aβ and Nogo-66, a strategy based on the crystal structure of NgR was employed. A number of human NgR surface-accessible residues were mutated to Ala either individually or as groups of adjacent residues (Table 3), and resultant ligand binding characteristics were assessed. The ligand concentrations were AP, 30 nM, AP-Nogo-66, 5 nM, AP-Aβ(1-28), 50 nM. NgR mutagenesis has been previously described. Hu et al., J Neurosci 25:5298-5304 (2005); Fournier et al., J Neurosci 23:1416-1423 (2003). The expression of each mutant NgR protein was verified by immunohistochemical detection at the surface of cells transfected with expression vector (FIG. 2a). Bound AP was stained and measured using NIH image software. Mutants of human NgR were detected on the surface of transfected COS-7 immunofluorescently. For each of the mutants with altered binding characteristics, expression of immunoreactive NgR protein with electrophoretic mobility similar to wild type was also confirmed by immunoblot (FIG. 2c). Whole COS-7 cell lysates expressing NgR mutants were subjected to SDS-PAGE and blotted with anti-NgR antibodies. The mobility of each mutant was indistinguishable from wild type NgR, except for the mutations in N-linked glycosylation sites (N82 and N179). The binding of both AP-Aβ(1-28) and AP-Nogo-66 ligands to cells expressing this collection of NgR mutant proteins was assessed at concentrations equal to the predetermined Kd's of the ligands (FIG. 2b, d).

| Binder | binding result |
| --- | --- |
| B1 | no binding (tested: 5 nM) |
| B2 | no binding (tested: 5 nM) |
| B3 | no binding (tested: 5 nM) |
| B4 | no binding (tested: 5 nM) |
| B5 | no binding (tested: 5 nM) |

Molecular target: T1, human NgR mutant 163 (mutated to alanine) (human, UniProt Q9BZR6 27-445)
T1 sequence: B1 chain with A41N, A42R, A45H, D137A
Experiment: AP-ligand binding to transfected COS-7 cells
Protocol: as §1

| Binder | binding result |
| --- | --- |
| B6 | no binding (tested: 5 nM) |
